Assays:
purified protein [1] = substrate: CC(=O)N[C@H]1[C@@H](OP(=O)(O)OP(=O)(O)OC[C@H]2O[C@@H](n3ccc(=O)[nH]c3=O)[C@H](O)[C@@H]2O)O[C@H](CO)[C@@H](O)[C@@H]1O; assay: purified protein; conditions: UDP-GlcA fixed at 2.5 mM, Mg2+, 37 °C, GDN detergent
purified protein [2] = substrate: O=C(O)[C@H]1O[C@H](OP(=O)(O)OP(=O)(O)OC[C@H]2O[C@@H](n3ccc(=O)[nH]c3=O)[C@H](O)[C@@H]2O)[C@H](O)[C@@H](O)[C@@H]1O; assay: purified protein; conditions: UDP-GlcNAc fixed at 2.5 mM, Mg2+, 37 °C, GDN detergent

B1: Xl-HAS-1 (Xenopus laevis) (protein)
chain: MKEKAAETMEIPEGIPKDLEPKHPTLWRIIYYSFGVVLLATITAAYVAEFQVLKHEAILFSLGLYGLAMLLHLMMQSLFAFLEIRRVNKSELPCSFKKTVALTIAGYQENPEYLIKCLESCKYVKYPKDKLKIILVIDGNTEDDAYMMEMFKDVFHGEDVGTYVWKGNYHTVKKPEETNKGSCPEVSKPLNEDEGINMVEELVRNKRCVCIMQQWGGKREVMYTAFQAIGTSVDYVQVCDSDTKLDELATVEMVKVLESNDMYGAVGGDVRILNPYDSFISFMSSLRYWMAFNVERACQSYFDCVSCISGPLGMYRNNILQVFLEAWYRQKFLGTYCTLGDDRHLTNRVLSMGYRTKYTHKSRAFSETPSLYLRWLNQQTRWTKSYFREWLYNAQWWHKHHIWMTYESVVSFIFPFFITATVIRLIYAGTIWNVVWLLLCIQIMSLFKSIYACWLRGNFIMLLMSLYSMLYMTGLLPSKYFALLTLNKTGWGTSGRKKIVGNYMPILPLSIWAAVLCGGVGYSIYMDCQNDWSTPEKQKEMYHLLYGCVGYVMYWVIMAVMYWVWVKRCCRKRSQTVTLVHDIPDMCV
Protein B1 has a Km (purified protein [1]) of 470 µM and a Km (purified protein [2]) of 370 µM.
